According to US20160046707A1 (EISAI R AND D MANAGEMENT, published 2016):

Tests used:
recombinant human CCL16 [1] = target: T1, recombinant human CCL16 (human, UniProt O15467 24-120); assay: ELISA, plate-bound chemokine (1 ug/ml), antibody 10 ug/ml, OD450
T1 construct: also called HCC-4
T1 sequence (looked up): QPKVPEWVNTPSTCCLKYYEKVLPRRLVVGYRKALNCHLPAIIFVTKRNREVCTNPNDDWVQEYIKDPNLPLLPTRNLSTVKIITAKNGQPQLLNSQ
Summary of the method: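 Wells coated overnight at 4 °C with 1 μg/ml recombinant human chemokine in PBS, blocked 1 h, then incubated 1 h at room temperature with antibodies at 10 μg/ml in 0.02% Tween 20/PBS. TMB development 15–30 min, stopped with 2 M H2SO4, OD read at 450 nm.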

recombinant human CCL16 [2] = target: T1, recombinant human CCL16; assay: SPR (Biacore): antibody captured on anti-human Fc, 100 nM chemokine injected
Description: (§1) We used Biacore™ analysis to test whether HC2/LK3 and HC2/LC3 cross-react with CCL16. Monoclonal mouse anti-human Fc was immobilized on all four flow cells of a CM5 chip at a flow rate of 25 μl/min with HBS-EP buffer containing 0.2 mg/mL BSA. Subsequently, 50 μl of a 1 μg/ml solution of chimeric, HC2/LC3, or HC2/LK3 antibody in HBS-EP buffer with 0.2 mg/ml BSA was injected over flow cells 2, 3, and 4, respectively. 150 μl of a 100 nM solution of CCL20 or CCL16 in HBS-EP buffer (or buffer alone) with 0.2 mg/ml BSA was then injected over all four flow cells at a flow rate of 40 μl/min. Dissociation followed for 20 min. Flow cell 1 (anti-human Fc antibody alone) was used as a reference for all flow cells.
(§2) Under these conditions, human CCL20 bound to the chimeric (FIG. 13A), HC2/LC3 (FIG. 13B), and HC2/LK3 (FIG. 13B) antibodies captured on the chip with similar strength.

[3] = target: T2, human CCL20-secreted alkaline phosphatase (SEAP) fusion (human, UniProt P78556 27-96); assay: SPR (Biacore), CCL20-SEAP captured by anti-SEAP, antibody injected (bivalent format), 1:1 Langmuir
T2 construct: also called hCCL20; human CCL20-SEAP; not shown: secreted alkaline phosphatase (SEAP), cDNA from pSEAP-Enhancer vector (Clontech)
Description: (§3) We also used surface plasmon resonance (Biacore™) analysis to test whether HC2/LC3 and HC2/LK3 can bind to mouse, cynomolgus, or rhesus macaque CCL20 orthologs. Monoclonal mouse anti-human placental alkaline phosphatase was immobilized on all four flow cells of a CM5 chip at a flow rate of 25 μl/min. 25 μl of a 2 nM solution of human, rhesus, cynomolgus, or mouse CCL20-SEAP in HBS-EP buffer was injected over flow cell 2, 3, or 4. For antibody binding, 240 μl of 0-80 nM dilutions of HC2/LC3, HC2/LK3, or 2F5-5 MAb in HBS-EP buffer (or buffer alone) was injected over all four flow cells at a flow rate of 50 μl/min. Dissociation followed for 45 min. Flow cell 1 (anti-SEAP alone) was used as a reference for all flow cells. Regeneration of the flow cells was performed with 10 mM glycine at pH 2.25. Due to regeneration effects on the capturing capacity of the chips, antibody injections were performed sequentially from low to high concentration. Data fitting was performed using a 1:1 Langmuir model.
(§4) In contrast, chimeric, HC2/LC3, and HC2/LK3 antibodies effectively bound to human, rhesus, and cynomolgus CCL20 (Table 17).

[4] = target: T3, rhesus CCL20-secreted alkaline phosphatase (SEAP) fusion (rhesus monkey); assay: as above
T3 construct: also called rCCL20; rhesus CCL20-SEAP; not shown: the SEAP reporter (cDNA from Clontech pSEAP-Enhancer) and its junction to CCL20
T3 chain: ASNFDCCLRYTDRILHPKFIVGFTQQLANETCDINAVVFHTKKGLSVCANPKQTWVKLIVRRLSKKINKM
Description: as §3, §4

recombinant human CCL16 [5] = target: T1, recombinant human CCL16; assay: SPR (Biacore): antibody captured on anti-human Fc, 100 nM chemokine injected; ratio = chemokine binding level over antibody capture level
Description: as §1, §2

[6] = target: T2, human CCL20-secreted alkaline …; assay: ELISA on CCL20-SEAP, Abs 450; x axis 'ug/ml' in 4-fold steps down from 10, taken as the antibody concentration as in FIG. 11C
[7] = target: T3, rhesus CCL20-secreted alkaline …; assay: as above
[8] = target: T4, cynomolgus CCL20-secreted alkaline phosphatase (SEAP) fusion (cynomolgus monkey); assay: as above
T4 construct: also called cCCL20; cynomolgus CCL20-SEAP; not shown: the SEAP reporter (cDNA from Clontech pSEAP-Enhancer) and its junction to CCL20
T4 chain: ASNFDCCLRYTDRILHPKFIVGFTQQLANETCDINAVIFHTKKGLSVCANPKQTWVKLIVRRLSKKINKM

[9] = target: rat CCL20-secreted alkaline phosphatase (SEAP) fusion (rat, UniProt P97884 27-96; P05187 23-511); assay: as above
rat CCL20-secreted alkaline phosphatase (SEAP) fusion, sequence (P97884 other isoform, or with tags, fused parts or gaps): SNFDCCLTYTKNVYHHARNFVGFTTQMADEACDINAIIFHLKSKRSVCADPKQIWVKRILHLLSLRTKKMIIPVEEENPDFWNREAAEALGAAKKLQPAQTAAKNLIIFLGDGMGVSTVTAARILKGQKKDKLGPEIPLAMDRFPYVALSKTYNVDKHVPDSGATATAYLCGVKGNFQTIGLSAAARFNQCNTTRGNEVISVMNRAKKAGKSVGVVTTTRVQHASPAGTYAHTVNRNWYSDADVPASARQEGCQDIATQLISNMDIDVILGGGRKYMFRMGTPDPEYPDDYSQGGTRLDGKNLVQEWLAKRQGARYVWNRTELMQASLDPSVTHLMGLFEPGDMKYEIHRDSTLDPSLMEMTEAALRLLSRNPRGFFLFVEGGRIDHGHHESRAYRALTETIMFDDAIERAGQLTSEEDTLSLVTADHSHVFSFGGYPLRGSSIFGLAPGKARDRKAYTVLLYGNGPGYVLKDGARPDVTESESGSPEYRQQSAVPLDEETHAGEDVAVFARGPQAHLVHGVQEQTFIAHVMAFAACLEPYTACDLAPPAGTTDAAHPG

T2 sequence (P78556 27-96): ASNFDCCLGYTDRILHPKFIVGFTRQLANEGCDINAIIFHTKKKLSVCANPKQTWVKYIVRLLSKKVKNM

B1: mouse anti-human CCL20 monoclonal antibody 36F7C10 (antibody, V domains shown)
VH: QVQLQQPGAELVKPGASVKMSCKASGYTFTNYWMHWVKQRPGQGLEWIGVIDPSDSYTTYNQKFKGKATLTVDTSSSTAYMQLSSLTSEDSAVYYCTRGNYGVDYAMDYWGQGTSVTVSS
VL: DIQMTQSPASLSASVGETVTITCGASENIYGALNWYQRKQGKSPQLLIYGATNLADGMSSRFSGSGSGRQYSLKISSLHPDDVATYYCQNVLITPYTFGGGTKLEIK
notes: Mouse hybridoma antibody; also called MouseMAb; parental mouse clone 36F7C10
Recombinant human CCL16 [1]
  binding result: no binding (tested: 10 ug/ml)

B2: chimeric 36F7C10 antibody (36F7C10-hFc) (antibody, V domains shown)
VH: QVQLQQPGAELVKPGASVKMSCKASGYTFTNYWMHWVKQRPGQGLEWIGVIDPSDSYTTYNQKFKGKATLTVDTSSSTAYMQLSSLTSEDSAVYYCTRGNYGVDYAMDYWGQGTSVTVSS
VL: DIQMTQSPASLSASVGETVTITCGASENIYGALNWYQRKQGKSPQLLIYGATNLADGMSSRFSGSGSGRQYSLKISSLHPDDVATYYCQNVLITPYTFGGGTKLEIK
notes: also called chimeric 36F710; Chimeric MAb
Recombinant human CCL16 [2]
  binding result: no binding (tested: 100 nM)
[3]
  Kd: 7.16 pM
  koff: 2.08e-05 s⁻¹
  kon: 2.9e+06 M⁻¹ s⁻¹
[4]
  Kd: 6.05 pM
  koff: 1.78e-05 s⁻¹
  kon: 2.94e+06 M⁻¹ s⁻¹
Recombinant human CCL16 [5]
  ReqCk/ReqAb ratio: 0.006

B3: humanized anti-human CCL20 antibody 36LK3/36HC2 (antibody, human IgG1, kappa, V domains shown)
VH: QVQLVQSGAEVKKPGASVKVSCKASGYTFTNYWMHWVRQAPGQGLEWMGVIDPSDSYTTYAQKFQGRVTMTVDTSTSTVYMELSSLRSEDTAVYYCARGNYGVDYAMDYWGQGTLVTVSS
VL: DIQMTQSPSSLSASVGDRVTITCGASENIYGALNWYQRKPGKAPKLLIYGATNLADGVPSRFSGSGSGRDYTLTISSLQPEDFATYYCQNVLITPYTFGQGTKLEIKR
notes: expressed in HEK293 cells; also called HC2/LK3; HC2LK3
Recombinant human CCL16 [2]
  binding result: no binding (tested: 100 nM)
[3]
  Kd: 11.8 pM
  koff: 3.39e-05 s⁻¹
  kon: 2.88e+06 M⁻¹ s⁻¹
[4]
  Kd: 31.2 pM
  koff: 8.21e-05 s⁻¹
  kon: 2.63e+06 M⁻¹ s⁻¹
[6]
  EC50 (read off the curve): ~0.02 mg/L
[7]
  EC50 (read off the curve): ~0.02 mg/L
[8]
  EC50 (read off the curve): ~0.02 mg/L
[9]
  binding result: no binding (tested: 10 ug/ml)
Recombinant human CCL16 [5]
  ReqCk/ReqAb ratio: 0.006

B4: humanized anti-human CCL20 antibody 36LC3/36HC2 (antibody, human IgG1, kappa, V domains shown)
VH: QVQLVQSGAEVKKPGASVKVSCKASGYTFTNYWMHWVRQAPGQGLEWMGVIDPSDSYTTYAQKFQGRVTMTVDTSTSTVYMELSSLRSEDTAVYYCARGNYGVDYAMDYWGQGTLVTVSS
VL: DIQMTQSPSSLSASVGDRVTITCRASENIYGALNWYQQKPGKAPKLLIYGATNLADGVPSRFSGSGSGRQYSLTISSLQPEDFATYYCQNVLITPYTFGGGTKLEIKR
notes: expressed in HEK293 cells; also called HC2/LC3; HC2LC3
Recombinant human CCL16 [1]
  binding result: no binding (tested: 10 ug/ml)
[3]
  Kd: 4.71 pM
  koff: 2.68e-05 s⁻¹
  kon: 5.69e+06 M⁻¹ s⁻¹
[4]
  Kd: 18.2 pM
  koff: 7.51e-05 s⁻¹
  kon: 4.13e+06 M⁻¹ s⁻¹
[6]
  EC50 (read off the curve): ~0.02 mg/L
[7]
  EC50 (read off the curve): ~0.02 mg/L
[8]
  EC50 (read off the curve): ~0.02 mg/L
[9]
  binding result: no binding (tested: 10 ug/ml)
Recombinant human CCL16 [5]
  ReqCk/ReqAb ratio: 0.005
